Drawing on publication PMC7102993, this text covers stoichiometry N for three substances.

Test [1] has as its target NrS-1 polymerase C-terminal region (residues 301-718) (phage NrS-1). The experiment in a line: crystal structure; A-form NrS-1 CTR crystals, space group P212121, grown at 16°C in 2.8 M sodium acetate trihydrate pH 7.0; six monomers per asymmetric unit.
The target is the same in test [2]. As to the kind of experiment: crystal structure; B-form NrS-1 CTR crystals, space group P213, grown at 16°C in 1.6 M NaH2PO4/0.4 M K2HPO4, 0.1 M phosphate-citrate pH 4.2; two monomers per asymmetric unit, hexamer by symmetry operation; 2.4 Å.
Test [3] deals with full-length NrS-1 polymerase (wild type) (phage NrS-1). As to the kind of experiment: SEC; Superose 6 Increase 10/300 GL; 20 mM Tris pH 8.0, 2 mM DTT with 500 mM NaCl (high salt) or 200 mM NaCl (low salt); monomer at 15.83 ml, hexamer at 13.5 ml. (In general: Size exclusion chromatography separates by hydrodynamic size, large species first.)
For test [4] the target is unchanged. As to the kind of experiment: negative-stain electron microscopy; protein from the first peak of the size-exclusion column, diluted to 40 μg/ml in low-salt buffer, stained with 0.75% uranyl formate; 2D class averages and 3D map (RELION).
The target in test [5] is full-length NrS-1 polymerase K525A mutant (phage NrS-1). As to the kind of experiment: SEC; Superose 6 Increase 10/300 GL; 20 mM Tris pH 8.0, 2 mM DTT with 500 mM NaCl (high salt) or 200 mM NaCl (low salt); monomer at 15.83 ml, hexamer at 13.5 ml.

By stoichiometry N is commonly meant a count of units in the complex or per binding partner. With “NrS-1 polymerase C-terminal region (residues 301-718) (domain or fragment)”, the stoichiometry N in test [1] and in test [2] was 6 throughout.

Regarding “full-length NrS-1 polymerase (wild type) (enzyme)”, the stoichiometry N in test [3] and in test [4] was 6 throughout. In the case of “full-length NrS-1 polymerase K525A mutant (enzyme)”, the stoichiometry N in test [5] worked out at 6.
